# Source: patent US20260226006A1, “INDOLE COMPOUND, PREPARATION METHOD THEREFOR AND USE THEREOF” (SUZHOU MERNA THERAPEUTICS CO. LTD, priority 2023, published 2026)
# B1: recombinant HBEGF protein: recombinant HBEGF protein used to induce keratinocyte differentiation (protein, UniProt Q99075 63-148, looked up)
# Heparin-binding EGF-like …: DLQEADLDLLRVTLSSKPQALATPNKEEHGKRKKKGKGLGKKRDPCLRKYKDFCIHGECKYVKELRAPSCICHPGYHGERCHGLSL
# Legend:
# [1] = tested on: KRT1, KRT10, Loricrin, and Involucrin in HaCat keratinocytes; experiment: Expression of keratinocyte differentiation markers in HaCat cells, RT-PCR and Western blot (Example 18); format: cell-based, human; conditions: HBEGF protein alone, 24 hours
# Protocol: 1*10^8 HaCat cells were seeded in culture dishes, into which a recombinant HBEGF protein (Thermo Fisher Scientific, Cat. #100-47-1 mg) was added. The cells were placed in an incubator containing 5% carbon dioxide for culture at 37° C. for 24 hours, into which an HBEGF antibody (Invitrogen, Cat. #406316) was added, or METTL3 siRNA (sh-METTL3, GeneChem) and NAP1L2 siRNA (sh-NAP1L2, GeneChem) were transfected. The cells were placed in an incubator containing 5% carbon dioxide for culture at 37° C. for 24 hours, washed with PBS, and then collected by high-speed centrifugation. An RLT lysis buffer was added to the above collected cells, the mixture was shaken at 4° C. for half an hour and centrifuged to collect the supernatant, and the protein expression amounts of keratinocyte differentiation markers KRT1, KRT10, Loricrin, and Involucrin were measured by Western blot.
# Total RNA was extracted using a Trizol reagent (Sigma Aldrich). 1 μg of RNA was reverse-transcribed into cDNA using a cDNA reverse transcription kit (Transgene Biotech, Cat. #AT311-03). 1.25 μL of a primer (with a primer sequence shown in Table 2), 10 μL of an iTag Universal SYBR Green supermix (Bio-Rad, Cat. #172-5125), and an appropriate amount of DEPC ultrapure water were added to formulate 20 μL of a reaction solution to perform an RT-PCR reaction. […]
# HaCaT keratinocytes = experiment: Inhibition of HBEGF-induced differentiation of HaCaT keratinocytes, marker mRNA by RT-PCR (Example 21); format: cell-based, human; conditions: 2.5 ng/mL human recombinant HBEGF protein alone, 24 hours
# Protocol: Human HaCaT keratinocytes were cultured in a DMEM culture medium containing 10% fetal bovine serum, 100 U/mL penicillin, and 100 µg/mL streptomycin. The cells were seeded into a 96-well plate at a density of […] and placed in an incubator containing 5% carbon dioxide for culture at 37° C. for 24 hours. An equal volume of DMSO was added into control well 1, a 2.5 ng/mL human recombinant HBEGF protein (Abcam, ab205523) was added into control well 2, and a 2.5 ng/mL human recombinant HBEGF protein and corresponding concentrations of test compounds were added into sample wells. The cells were continuously cultured for 24 hours, washed with PBS, and then collected by high-speed centrifugation. Total RNA was extracted using a Trizol reagent (Sigma Aldrich). 1 μg of RNA was reverse-transcribed into cDNA using a cDNA reverse transcription kit (Transgene Biotech, AT311-03). 1.25 μL of a primer (with a primer sequence shown in Table 2), 10 μL of an iTag Universal SYBR Green supermix (Bio-Rad, 172-S125), and an appropriate amount of DEPC ultrapure water were added to formulate 20 μL of a reaction solution to perform an RT-PCR reaction. Upon completion of the reaction, the reaction solution was subjected to agarose gel electrophoresis to determine the mRNA expression amounts of keratinocyte differentiation markers KRT1, KRT10, Loricrin, and Involucrin.
molecule,measurement,setting,value
B1,"mRNA and protein expression amounts of KRT1, KRT10, Loricrin, and Involucrin",[1],significantly increased
same,"mRNA expression amounts of HaCaT differentiation markers KRT1, KRT10, Loricrin, and Involucrin",HaCaT keratinocytes,significantly increased
